Measurements as given in patent US20110229475A1 (GlaxoSmithKline, published 2011).

Biological target: T1, human IL-8 (human, UniProt P10145 28-99, limits assumed)
T1 construct: also called hIL-8; hIL8
Experiment: TRFIA, chemokine coated on plate, biotinylated anti-mouse IgG and streptavidin-europium detection
Protocol: Briefly, each antigen (human IL-8, Gro-alpha, Gro-beta, Gro-gamma, GCP-2, and ENA-78, and hIL-18 when used as negative control) is individually coated onto a 96-well immunofluorescent plate. The plates are then washed and blocked with a commercially available blocking solution. Blocking solution is emptied and samples containing the mAb are added into each well and incubated for 40 to 60 minutes (this allows the mAb to bind to the target chemokines). The plates are then washed again and a detection Ab is added to each well. […] The detection antibody is conjugated to either europium or biotin. Following another round of washing, to remove unbound detection Ab, a solution of streptavidin-europium was added to biotin detected assays. Streptavidin-europium binds to the biotin allowing for detection. After a final wash to remove unbound streptavidin-europium, or in the case of the humanized MAb assay after the europium conjugate secondary is washed, each well is filled with a chelating detergent solution to activate the europium producing fluorescence. The greater the fluorescence recorded is directly proportionate to the amount of detection Ab present in the well which is directly linked and proportionate to the amount of the chemokine binding mAb.

- EC50 (read off the curve): ~0.04 µg/mL
B1: mouse monoclonal antibody 656.35 (antibody, IgG2a, V domains shown)
VH: QVQLQQSGAELVRPGTSVTISCKASGYTFTNYWIVWVKQRPGHGLEWIGDLYSGGGYTFYSENFKGKATLTADTSSSTAYMHLISLTSEDSAVYFCARSGYDRTWFAHWGQGSLVTVSA
VL: DIKMTQSPSSMSASLGERVTITCQASQDIESYLSWYQQKPWKSPKTLIYYATRLADGVPSRFSGSGSGQDYSLTISSLESDDTATYYCLQHGESPPTFGAGTKLELKR
notes: Murine hybridoma antibody; also called 2x656.35
